Earlier results on one substance are cited in PMC10218885.

Holding throughout (assay): NMR
Series [1] concerns the target Tyr42 (UniProt position 42, GNILQYNAAEG).
Series [2] addresses Tyr94 (UniProt position 94, NTMFEYTFDYQ).
Series [3] addresses Tyr118 (UniProt position 118, LSGDSYWVFVK).
Series [4] has as its target Tyr76 (UniProt position 76, DSPEFYGKFKE).
In series [5] the target is Tyr98 (UniProt position 98, EYTFDYQMTPT).

A value given as a limit tells only on which side of the number the result lay.

On to “Photoactive yellow protein (PYP) (Stated in the article as Halobacterium halobium; the PYP of the cited study is from Halorhodospira halophila (formerly Ectothiorhodospira halophila))”, for which the pKa in series [1] is on record as more than 13; in series [2], more than 13; in series [3], 11.4–12.0; in series [4] it was 10.2–10.3; in series [5], 10.2–10.3.
